Holding throughout (assay): IEDB peptide-MHC binding, purified MHC/competitive/fluorescence; filed as Kd, often an IC50 or EC50 that approximates it; ≥ and ≤ were set here for values at or beyond the usual limits of such assays
The target of assay [1] is HLA-A*11:01. Conditions: source organism: Homo sapiens.
Assay [2] has as its target HLA-A*26:02. Conditions: source organism: Homo sapiens.
Assay [3] concerns the target HLA-A*26:03. The conditions noted are these: source organism: Homo sapiens.
In assay [4] the target is HLA-A*68:02. Conditions: source organism: Homo sapiens.
Assay [5] addresses HLA-B*08:01. Conditions: source organism: Homo sapiens.
Assay [6] deals with HLA-B*08:03. Conditions: source organism: Homo sapiens.
The target of assay [7] is HLA-B*15:09. Conditions: source organism: Homo sapiens.
In assay [8] the target is HLA-B*15:17. The conditions noted are these: source organism: Homo sapiens.
Assay [9] addresses HLA-A*02:01. The conditions noted are these: source organism: Escherichia coli F11.
The target of assay [10] is HLA-B*15:42. Conditions: source organism: Escherichia coli F11.
Assay [11] deals with HLA-B*40:13. The conditions noted are these: source organism: Escherichia coli F11.
For assay [12], the target named is HLA-B*45:06. The conditions noted are these: source organism: Escherichia coli F11.
Assay [13] has as its target HLA-B*83:01. Conditions: source organism: Escherichia coli F11.

From the Immune Epitope Database (IEDB) come the findings set out here.

pKd: −log10 of the molar value.

Regarding TYSPALNKM, the negative-log Kd (pKd) was ≤ 4.70 in assay [1]; 6.28 in assay [2]; ≤ 4.70 in [3]; 5.49 in [4]; ≤ 4.70 in assay [5]; ≤ 4.70 in assay [6]. Moreover, the pKd in [7] and in assay [8] was ≤ 4.70 each time.
As for GLIPQWVTL, the pKd was ≥ 10.00 in [9]; ≤ 5.30 in [10]; 6.34 in assay [11]; ≤ 5.30 in [12]; ≤ 5.30 in assay [13].

In general, pKd refers to −log10 of the Kd, conventionally taken in molar units.
